# Measurements taken from publication PMC8217507 (Scientific Reports, 2021).
# B1: HuMAb 3G9 (antibody, V domains shown)
# VH: EVQLLDSGGGLVQPGGSLRLSCAASGFTFNDYAMTWVRQAPGKGLEWVSTISGSGDGTYYQESLKGRFTISRDNSKNTLYLLMSSLRVDDTAVYYCAKLFGVGDSDGYWGQGTLVTVSS
# VL: QAVVTQEPSLTVSPGGTVTLTCGSSTGAVTSDHYFYWFQQKPGQAPRTLIYQTTNKHPWTPARFSGSLLGGKAALTLSGAQPEDEAEYYCLLSYGGGRPVFGGGTKLTVL
# notes: also called 3G9-original; 3G9-Original
# B2: HuMAb 1E5 (antibody, V domains shown)
# VH: QVQLVESGGGVVQPGKSLRVSCAASGFIFSSYGMHWVRQAPGKGLEWVAVISYDGRYKFYADSVKGRFTISRDDSRSTLYLQMNSLRSDDTAVYYCARGRPYIGGDYEYDYFYGMDVWGQGTTVIVSS
# VL: IVMTQTPLSSPVTLGQPASISCRSSQSLVHSDGNTYLNWLQQRPGQPPRLLIYNISNRFSGVPDRFSGSGAGTDFTLKINRVEAEDVGVYYCMQATHFPYSFGQGTKLEIK
# B3: HuMAb 3E1 (antibody, V domains shown)
# VH: EVQLLESGGGLVQPGGSLRLSCAASGFTFSRFAMTWVRQAPGKGLEWVSAISGSGGSTFYADSVKGRFTISRDNSKNTLYLQMNSLRAEDTAVYYCVSLGDAWLLYWTPWGQGSLVTVSS
# VL: DVVMTQSPLSLPVTLGQPASISCRSSQSLVHGDGNTYLNWFQQRPGQSPRRLIYNVSNRDPGVPDRFSGSGSGTDFTLKISWVEAEDVGVYYCMQATHLPPTFGGGTKVEI
# B4: HuMAb 1C3 (antibody, V domains shown)
# VH: EVQLVESGGGLVQPGGSLRLSCAASGFTFSDHYIDWVRQAPGKGLEWVGRTSNRANSYTSEYAASVKGRFTISRDDSKNSVYLQMNSLKTEDTAVYFCARDSGWYDFWGQGTLVTVSS
# VL: ALTQPASVSGSPGQSITISCTGPSRDLGANNYVSWYQQHPGKAPKLLIYDINNRPSGVPDRFSGSRSGNTASLTISGLQADDEADYYCSSYTRSRTRVFGGGTKLTVL
# Target: T1, DENV2 (strain 16681) prM-E, wild type (Dengue virus type 2, strain 16681, UniProt P29990)
# T1 construct: also called wild-type prM-E; DENV-2 prM-E; source: HEK-293T, transfected, in fixed cells
# Test: flow cytometry on cells
row,Binder,binding result
1,B1,binds
2,B2,binds
3,B3,binds
4,B4,binds

# Target: E protein of DENV-2 Indonesian isolate (cosmopolitan genotype, Surabaya) (Dengue virus type 2, cosmopolitan …, UniProt P14340, strain)
# Test: cell-based or functional assay
row,Binder,"NT50, neutralization of DENV-2 (Indonesian isolate), Vero cells [µg/mL]"
1,B1,0.02
2,B2,0.69
3,B3,0.05
4,B4,0.12
